Results published in patent US12070483B2, “Compositions and methods for treatment of acute lung injury” (THE TRUSTEES OF THE UNIVERSITY OF PENNSYLVANIA, priority 2018, dated 2024).
Values belong to the sequence of their own block, whether it stands above or below them.

Key:
Prdx6 = molecular target: T1, Prdx6 (Mus musculus, UniProt O08709); experiment: aiPLA2 (Prdx6-PLA2) activity of mouse lung homogenate after IT or IV injection of PIP; format: in vivo; set-up: key to aiPLA2 activity, figure in parentheses (0 h = 100): Prdx6-PLA2 activity as % of 0 h value (0 h = 100); conditions: for Prdx6-PLA2 activity of mouse lung homogenate: Table 6; for aiPLA2 activity of mouse lung: 24 hours after IV injection, 2 μg/g, liposomes only 8.81
T1 construct: from tissue; host or cells: mouse lung homogenate (wild type mice)
T1 sequence (O08709 1-224): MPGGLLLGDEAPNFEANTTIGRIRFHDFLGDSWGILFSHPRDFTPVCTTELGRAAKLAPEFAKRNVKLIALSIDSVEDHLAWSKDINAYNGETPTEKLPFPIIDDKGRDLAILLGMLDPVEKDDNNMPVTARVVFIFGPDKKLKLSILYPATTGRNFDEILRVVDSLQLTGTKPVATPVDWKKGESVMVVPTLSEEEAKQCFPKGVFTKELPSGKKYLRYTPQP
Description: FIG. 6: PIP-2 in liposomes was administered to mice either intratracheally (IT) or intravenously (IV) at 0 time. Lungs were harvested at intervals between 4 and 72 h after the PIP-2 administration, homogenized, and analyzed for Prdx6-PLA2 activity. PIP-2 is effective by either the IT or IV route with a calculated ½ time for recovery of ˜50 h. Results are mean+SE for N=3-4.
PIP-2 in liposomes injected IV or IT inhibits Prdx6 activity of the lung homogenate. Maximal inhibition was seen within 4 hours after administration of PIP-2. Recovery from inhibition began at ˜36 hours and was complete by 48 hours. Results are similar for PIP-1,2,4 (PIP-3 and -5 were not tested). […] Effectiveness requires liposomes for peptide delivery. Inhibition after IT or IV administration was similar.

[1] = system: C57Bl/6 mice, LPS-mediated lung injury; experiment: Acute lung injury after intratracheal LPS (5 μg/g), lungs evaluated at 24 h; format: in vivo, mouse; conditions: for lung injury, peptide administered along with LPS (0 time): evaluated at 24 hours after LPS; for lung injury, peptide administered at 12-16 hours after LPS: sacrifice @ 24 hours
Description: The IT model of acute lung injury (ALI) as shown in Table 9 was used to test the effects of PIP-2. […] IV administration of PIP-2 was used to avoid a second ‘assault’ on the trachea. Mice were sacrificed at 24 hours and lungs were evaluated for injury as described in Table 9. Protection (%) against lung injury was calculated as [1−(injury with PIP-2−control)/(LPS alone−control)]. Results are mean±SE for n=4. *P<0.01 vs control. ^†P<0.01 vs no PIP, 24 hours.
To study the effect of PIP-2 administration on lung injury, mice were treated with LPS (5 μg/g body weight) given IT. […] PIP-2 (2 μg/g body weight in liposomes) was administered at 0, 12, or 16 h after LPS. We have shown previously that this dose of PIP-2 can inhibit lung aiPLA2 activity by ˜90% for at least 24 h. PIP-2 was given IT at time zero and IV at 12 or 16 h in order to avoid excessive damage to the trachea. Animals were sacrificed and lungs were examined at 24 h after LPS. All indices of lung injury, reflecting lung inflammation, alveolar-capillary barrier dysfunction, lung fluid accumulation, and tissue oxidative stress, were elevated in LPS-treated mice as compared to control (p<0.05). […] Since lung injury was present in lungs at 12 and 16 h after LPS, the normal values at 24 h in lungs from LPS treated mice given PIP-2 at 12 or 16 h can only mean that lungs were able to recover fully from their injury during the 8 to 12 h interval between the administration of PIP-2 and examination of the lungs.

[2] = LPS 5 μg/g IT, PIP-2 2 μg/g IV @12 hr, sacrifice at 24 hrs
[3] = LPS 5 μg/g IT, PIP-2 2 μg/g IV @16 h, sacrifice at 24 hrs
[4] = Control: PIP in liposomes IT, no LPS
[5] = Control: PIP in liposomes, no LPS
[6] = LPS 5 μg/g IT, PIP-4 2 μg/g IV @12 hr, sacrifice at 24 hrs
[7] = LPS 5 μg/g IT, PIP-4 2 μg/g IV @16 h, sacrifice at 24 hrs

Sequence: LHDFRHQIL (Inhibitory peptide.) [PIP-2]
aiPLA2 activity of mouse lung homogenate (Prdx6; IT, 0 h post injection): 8.84 ± 0.35 nmol/hr/mg protein | aiPLA2 activity, figure in parentheses (0 h = 100) (Prdx6; IT, 0 h post injection): 100 | aiPLA2 activity of mouse lung homogenate (Prdx6; IT, 4 h post injection): 1.56 ± 0.03 nmol/hr/mg protein | aiPLA2 activity, figure in parentheses (0 h = 100) (Prdx6; IT, 4 h post injection): 18 | aiPLA2 activity of mouse lung homogenate (Prdx6; IT, 12 h post injection): 1.61 ± 0.04 nmol/hr/mg protein | aiPLA2 activity, figure in parentheses (0 h = 100) (Prdx6; IT, 12 h post injection): 18 | aiPLA2 activity of mouse lung homogenate (Prdx6; IT, 24 h post injection): 1.63 ± 0.14 nmol/hr/mg protein | aiPLA2 activity, figure in parentheses (0 h = 100) (Prdx6; IT, 24 h post injection): 18 | aiPLA2 activity of mouse lung homogenate (Prdx6; IT, 36 h post injection): 2.04 ± 0.04 nmol/hr/mg protein | aiPLA2 activity, figure in parentheses (0 h = 100) (Prdx6; IT, 36 h post injection): 27 | aiPLA2 activity of mouse lung homogenate (Prdx6; IT, 48 h post injection): 2.95 ± 0.10 nmol/hr/mg protein | aiPLA2 activity, figure in parentheses (0 h = 100) (Prdx6; IT, 48 h post injection): 33 | aiPLA2 activity of mouse lung homogenate (Prdx6; IT, 72 h post injection): 8.78 ± 0.18 nmol/hr/mg protein | aiPLA2 activity, figure in parentheses (0 h = 100) (Prdx6; IT, 72 h post injection): 99 | aiPLA2 activity of mouse lung homogenate (Prdx6; IV, 0 h post injection): 8.85 ± 0.3 nmol/hr/mg protein | aiPLA2 activity, figure in parentheses (0 h = 100) (Prdx6; IV, 0 h post injection): 100 | aiPLA2 activity of mouse lung homogenate (Prdx6; IV, 4 h post injection): 1.45 ± 0.07 nmol/hr/mg protein | aiPLA2 activity, figure in parentheses (0 h = 100) (Prdx6; IV, 4 h post injection): 16 | aiPLA2 activity of mouse lung homogenate (Prdx6; IV, 12 h post injection): 1.58 ± 0.04 nmol/hr/mg protein | aiPLA2 activity, figure in parentheses (0 h = 100) (Prdx6; IV, 12 h post injection): 18 | aiPLA2 activity of mouse lung homogenate (Prdx6; IV, 24 h post injection): 1.77 ± 0.11 nmol/hr/mg protein | aiPLA2 activity, figure in parentheses (0 h = 100) (Prdx6; IV, 24 h post injection): 20 | aiPLA2 activity of mouse lung homogenate (Prdx6; IV, 36 h post injection): 2.14 ± 0.03 nmol/hr/mg protein | aiPLA2 activity, figure in parentheses (0 h = 100) (Prdx6; IV, 36 h post injection): 24 | aiPLA2 activity of mouse lung homogenate (Prdx6; IV, 48 h post injection): 3.03 ± 0.05 nmol/hr/mg protein | aiPLA2 activity, figure in parentheses (0 h = 100) (Prdx6; IV, 48 h post injection): 34 | aiPLA2 activity of mouse lung homogenate (Prdx6; IV, 72 h post injection): 8.49 ± 0.10 nmol/hr/mg protein | aiPLA2 activity, figure in parentheses (0 h = 100) (Prdx6; IV, 72 h post injection): 96 | time at which recovery from inhibition began (Prdx6; PIP-2 in liposomes IV or IT): ~36 h | time at which recovery from inhibition was complete (Prdx6; PIP-2 in liposomes IV or IT): ≤ 48 h | time to maximal inhibition of Prdx6 activity of lung homogenate (Prdx6; PIP-2 in liposomes IV or IT): ≤ 4 h | calculated ½ time for recovery of Prdx6-PLA2 activity (Prdx6; PIP-2 in liposomes, IT or IV): ~50 h | Prdx6-PLA2 activity of mouse lung homogenate (Prdx6; IT, lungs lavaged prior to assay, 0 post injection): 8.1 ± 0.3 nmol/hr/mg protein | Prdx6-PLA2 activity of mouse lung homogenate (Prdx6; IT, lungs lavaged, 24 hr post injection): 1.2 ± 0.02 nmol/hr/mg protein | Prdx6-PLA2 activity of mouse lung homogenate (Prdx6; IT, lungs lavaged, 48 hr post injection): 3.0 ± 0.2 nmol/hr/mg protein | Prdx6-PLA2 activity of mouse lung homogenate (Prdx6; IT, lungs lavaged, 72 hr post injection): 8.3 ± 0.9 nmol/hr/mg protein | # of cells ([1]; LPS 5 μg/g IT, PIP-2 2 μg/g IT @0 hrs, sacrifice at 24 hrs, control 0.95, LPS 8.67): 0.92 ± 0.02 ×10^4/g wt | Wet/Dry lung weight ratio ([1]; LPS 5 μg/g IT, PIP-2 2 μg/g IT @0 hrs, sacrifice at 24 hrs, control 5.59, LPS 8.10): 5.50 ± 0.04 | Protein carbonyls ([1]; LPS 5 μg/g IT, PIP-2 2 μg/g IT @0 hrs, sacrifice at 24 hrs, control 5.6, LPS 16.9): 5.4 ± 0.1 nmol/mg prot | 8-Isoprostanes ([1]; LPS 5 μg/g IT, PIP-2 2 μg/g IT @0 hrs, sacrifice at 24 hrs, control 34, LPS 101): 31 ± 2 pmol/mg prot | protein ([1]; LPS 5 μg/g IT, PIP-2 2 μg/g IT @0 hrs, sacrifice at 24 hrs, control 75, LPS 164): 71 mg protein/g wt | TBARS ([1]; LPS 5 μg/g IT, PIP-2 2 μg/g IT @0 hrs, sacrifice at 24 hrs, control 75, LPS 381): 70 ± 2.1 pmol/mg prot. | 8-Isoprostanes [1, 2]: 38 ± 1 pmol/mg prot | # of cells [1, 2]: 1.45 ± 0.03 ×10^4/g wt | Protein carbonyls [1, 2]: 6.4 ± 0.2 nmol/mg prot | TBARS [1, 2]: 85 ± 5.2 pmol/mg prot. | Wet/Dry lung weight ratio [1, 2]: 5.95 ± 0.02 | protein [1, 2]: 84 ± 1.2 mg protein/g wt | 8-Isoprostanes [1, 3]: 40 ± 1 pmol/mg prot | # of cells [1, 3]: 1.43 ± 0.2 ×10^4/g wt | Protein carbonyls [1, 3]: 6.4 ± 0.3 nmol/mg prot | TBARS [1, 3]: 89 ± 9.3 pmol/mg prot. | Wet/Dry lung weight ratio [1, 3]: 6.19 ± 0.06 | protein [1, 3]: 82.0 ± 1.2 mg protein/g wt | protection against lung injury ([1]; PIP-2 at 12 or 16 hours after LPS, evaluated at 24 hours): 85-95% | lung injury, peptide administered along with LPS (0 time) [1]: completely prevented lung injury | protection against lung injury ([1]; evaluated at 24 hr after IT LPS, PIP-2 at 0, 12 or 16 h after LPS): > 75% | lung injury, peptide administered at 12-16 hours after LPS [1]: prevents further injury

aiPLA2 activity of mouse lung (Prdx6; alone, no liposomes): 8.43 ± 0.23 (n = 3) nmol/hr/mg prot | aiPLA2 activity of mouse lung (Prdx6; in liposomes): 1.55 ± 0.02 (n = 3) nmol/hr/mg prot | Prdx6-PLA2 activity of mouse lung homogenate (Prdx6; IV, 0 post injection): 8.0 ± 0.7 nmol/hr/mg protein | Prdx6-PLA2 activity of mouse lung homogenate (Prdx6; IV, 24 hr post injection): 1.1 ± 0.02 nmol/hr/mg protein | Prdx6-PLA2 activity of mouse lung homogenate (Prdx6; IV, 48 hr post injection): 2.8 ± 0.2 nmol/hr/mg protein | Prdx6-PLA2 activity of mouse lung homogenate (Prdx6; IV, 72 hr post injection): 7.8 ± 1.2 nmol/hr/mg protein | Prdx6-PLA2 activity of mouse lung homogenate (Prdx6; IV, 96 hr post injection): 8.1 ± 0.2 nmol/hr/mg protein
Sequence: LYEIKHQIL (Inhibitory peptide.) [PIP-4]
8-Isoprostanes [1, 4]: 34 ± 1 pmol/mg prot | Protein carbonyls [1, 4]: 5.8 ± 0.2 nmol/mg prot | TBARS [1, 4]: 76 ± 2 pmol/mg prot. | # of cells [1, 5]: 0.96 ± 0.03 ×10^4/g wt | Wet/Dry lung weight ratio [1, 5]: 5.59 ± 0.02 | protein [1, 5]: 78 ± 2 μg protein/g wt | Wet/Dry lung weight ratio ([1]; LPS 5 μg/g IT, PIP-4 2 μg/g IT @0 hrs, sacrifice at 24 hrs, LPS alone 7.40): 6.1 ± 0.01 | # of cells ([1]; LPS 5 μg/g IT, PIP-4 2 μg/g IT @0 hrs, sacrifice at 24 hrs, LPS alone 8.5): 0.95 ± 0.02 ×10^4/g wt | Protein carbonyls ([1]; LPS 5 μg/g IT, PIP-4 2 μg/g IT @0 hrs, sacrifice at 24 hrs, LPS alone 16.9): 5.9 ± 0.3 nmol/mg prot | 8-Isoprostanes ([1]; LPS 5 μg/g IT, PIP-4 2 μg/g IT @0 hrs, sacrifice at 24 hrs, LPS alone printed 1.02 ± 3): 32 ± 2 pmol/mg prot | # of cells [1, 6]: 1.46 ± 0.25 ×10^4/g wt | Protein carbonyls [1, 6]: 6.4 ± 0.1 nmol/mg prot | protein [1, 6]: 85 ± 2 μg protein/g wt | # of cells [1, 7]: 1.44 ± 0.12 ×10^4/g wt | Protein carbonyls [1, 7]: 6.4 ± 0.1 nmol/mg prot | TBARS [1, 7]: 85 ± 2 pmol/mg prot. | Wet/Dry lung weight ratio [1, 7]: 6.12 ± 0.09 | protein [1, 7]: 83 ± 1 μg protein/g wt | lung injury, peptide administered along with LPS (0 time) [1]: prevents lung injury | lung injury, peptide administered at 12-16 hours after LPS [1]: prevents further injury
